This is an account of results in PMC4658703 (2012).

For the assay, the target named is IGF2 (Homo sapiens, UniProt P01344).
Sequence of IGF2 (P01344 25-91): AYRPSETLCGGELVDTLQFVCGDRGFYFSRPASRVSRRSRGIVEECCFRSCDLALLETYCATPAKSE

B1: IGF2R domain 11 (protein)
chain: MKSNEHDDCQVTNPSTGHLFDLSSLSGRAGFTAAYSKSGVVYMSICGENENCPPGVGACFGQTRISVGKANKRLRYVDQVLQLVYKDGSPCPSKSGLSYKSVISFVCRPEARPTNRPMLISLDKQTCTLFFSWHTPLACEQAT
Turning to B1, the Kd – broadly, a measure of binding affinity in units of concentration – was determined as 15 nM.
